Measured values reported in US20160122431A1 (MAYO FOUNDATION FOR MEDICAL EDUCATION AND RESEARCH, published 2016).

Experiments:
[1] = molecular target: T1, murine B7-DC (murine, UniProt Q9WUL5 20-247); test: cell-based or functional assay
T1 sequence (looked up): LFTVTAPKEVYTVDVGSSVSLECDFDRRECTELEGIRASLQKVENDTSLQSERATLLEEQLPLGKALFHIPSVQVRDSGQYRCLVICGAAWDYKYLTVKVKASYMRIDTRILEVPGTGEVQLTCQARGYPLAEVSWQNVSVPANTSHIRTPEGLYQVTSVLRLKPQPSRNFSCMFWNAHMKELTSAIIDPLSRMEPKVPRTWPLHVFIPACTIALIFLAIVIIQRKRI

[2] = molecular target: T2, human B7-DC (human, UniProt Q9BQ51 20-273); test: flow cytometry on Ltk cells transiently transfected with human B7-DC
T2 construct: whole, on cells; also called hB7.DC; human B7-DC orthologue
T2 sequence (looked up): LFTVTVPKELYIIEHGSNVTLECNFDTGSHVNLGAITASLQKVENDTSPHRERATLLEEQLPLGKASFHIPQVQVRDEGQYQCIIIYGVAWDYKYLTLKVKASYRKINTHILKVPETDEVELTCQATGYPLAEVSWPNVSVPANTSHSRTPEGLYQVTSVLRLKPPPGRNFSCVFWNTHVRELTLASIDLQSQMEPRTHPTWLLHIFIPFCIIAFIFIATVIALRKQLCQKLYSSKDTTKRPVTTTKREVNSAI
From the text: Furthermore, the level of sHIgM12 binding to L-cells was positively correlated with the amount of B7-DC plasmid used in the transfection.

B1: sHIgM12 (human monoclonal IgM antibody, pentameric) (antibody)
heavy: QVQLQESGPGLLKPSETLSLTCTVSGGSVSLYYWSWIRQSPGKEPEWIGYIYSSGSTDYNPSLRSRVTISLDTSNNRFSLNLRSVTAADTAVYWCARSASIRGWFDPWGQGTLVTVSSGSASAPTLFPLVSCENSPSDTSSVAVGCLAQDFLPDSITFSWKYKNNSDISSTRGFPSVLRGGKYAATSQVLLPSKDVMQGTDEHVVCKVQHPNGNKEKNVPLPVIAELPPKVSVFVPPRDGFFGNPRKSKLICQATGFSPRQIQVSWLREGKQVGSGVTTDQVQAEAKESGPTTYKVTSTLTIKESDWLSQSMFTCRVDHRGLTFQQNASSMCVPDQDTAIRVFAIPPSFASIFLTKSTKLTCLVTDLTTYDSVTISWTRQNGEAVKTHTNISESHPNATFSAVGEASICEDDWNSGERFTCTVTHTDLPSPLKQTISRPKGVALHRPDVYLLPPAREQLNLRESATITCLVTGFSPADVFVQWMQRGQPLSPEKYVTSAPMPEPQAPGRYFAHSILTVSEEEWNTGETYTCVVAHEALPNRVTERTVDKSTGKPTLYNVSLVMSDTAGTCY
light: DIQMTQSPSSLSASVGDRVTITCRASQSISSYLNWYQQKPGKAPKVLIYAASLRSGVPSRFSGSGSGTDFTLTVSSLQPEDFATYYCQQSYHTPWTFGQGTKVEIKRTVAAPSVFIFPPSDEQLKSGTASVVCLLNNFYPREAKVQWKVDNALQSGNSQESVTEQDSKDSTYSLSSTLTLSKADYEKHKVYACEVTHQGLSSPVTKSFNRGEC
notes: IgM/kappa purified from human patient serum; A J chain is not mentioned; also called B7-DC cross-linking antibody; sHIgM12 antibody
GFP+, CD11c+ DC recovered from draining lymph nodes after adoptive transfer [1]: 5 fold | IL-12 p70 release by DC (ELISA), against LPS [1]: ~3 fold | ability of lymph node DC to induce an antigen-specific T cell response [1]: 10 fold | binding result [2]: binds
